B1: TlpA-CC-DED (TlpA coiled-coil domain with Asp-Glu-Asp appended to the C-terminus) (protein)
chain: MRPATYEPEQIIEAGLALQAEGRNITGFALRNQVGGGNPTRLRQIWDEYQASQSTVVTEPVAELPVEVAEEVKAVSAALSERITQLATELNDKAVRAAERRVAEVTRAAGEQTAQAERELADAAQTVDDLEEKLDELQDRYDSLTLALESERSLRQQHDVEMAQLKERLAAAEENTRQREERYQEQKTVLQDALNAEQAQHKNTREDLQKRLEQISAEANARTEELKSERDKVNTLLTRLESQENALASERQQHLATRETLQQRLEQAIADTQARAGEIALERDRVSSLTARLESQEKASSEQLVRMGSEIASLTERCTQLENQRDDARLETMGEKETVAALRGEAEALKRQNQSLMAALSGNKQTGGQNADED
B2: DED-TlpA-CC (TlpA coiled-coil domain with Asp-Glu-Asp appended to the N-terminus) (protein)
chain: DEDMRPATYEPEQIIEAGLALQAEGRNITGFALRNQVGGGNPTRLRQIWDEYQASQSTVVTEPVAELPVEVAEEVKAVSAALSERITQLATELNDKAVRAAERRVAEVTRAAGEQTAQAERELADAAQTVDDLEEKLDELQDRYDSLTLALESERSLRQQHDVEMAQLKERLAAAEENTRQREERYQEQKTVLQDALNAEQAQHKNTREDLQKRLEQISAEANARTEELKSERDKVNTLLTRLESQENALASERQQHLATRETLQQRLEQAIADTQARAGEIALERDRVSSLTARLESQEKASSEQLVRMGSEIASLTERCTQLENQRDDARLETMGEKETVAALRGEAEALKRQNQSLMAALSGNKQTGGQNA
B3: TlpA-CC WT (TlpA coiled-coil domain, wild type) (protein)
chain: MRPATYEPEQIIEAGLALQAEGRNITGFALRNQVGGGNPTRLRQIWDEYQASQSTVVTEPVAELPVEVAEEVKAVSAALSERITQLATELNDKAVRAAERRVAEVTRAAGEQTAQAERELADAAQTVDDLEEKLDELQDRYDSLTLALESERSLRQQHDVEMAQLKERLAAAEENTRQREERYQEQKTVLQDALNAEQAQHKNTREDLQKRLEQISAEANARTEELKSERDKVNTLLTRLESQENALASERQQHLATRETLQQRLEQAIADTQARAGEIALERDRVSSLTARLESQEKASSEQLVRMGSEIASLTERCTQLENQRDDARLETMGEKETVAALRGEAEALKRQNQSLMAALSGNKQTGGQNA


| Protein | Hill coefficient (fit of CD melting curve at 222 nm, 25-50 C) |
| --- | --- |
| B1 | 16.7 |
| B2 | 24.7 |
| B3 | 19.1 |
